From paper PMC10338489, “Structural and photophysical characterization of the small ultra-red fluorescent protein” (Nature Communications, 2023)
Values joined by “and” are separate entries in the source; they are usually repeats but may differ in a detail not shown here. Equal values may be shown once. Each block holds one molecule with its values, some of them ahead of it.

How the values were obtained:
smURFP H61R = assay: native gel or EMSA; NativePAGE 4-16% Bis-Tris gel, 0.27 μg purified protein per lane, without and with 100 mM DTT; Coomassie stain and far-red fluorescence; homodimeric smURFP used as a size reference
[1] = biological target: the molecule itself; assay: cell-based or functional assay
[2] = biological target: the molecule itself; assay: crystal structure; apo-smURFP crystallised from smURFP with 20% BV attached; hanging drop, 20 °C, 4 M Na nitrate + 0.1 M NaOAc (pH 4.6); 2.8 Å, space group C222(1), six protomers (three homodimers) in the asymmetric unit

stoichiometry N (smURFP H61R): 2 and > 2
Molecule: smURFP H61R

OSER assay in HEK293A cells expressing CytERM-mGFP: ratio of the MFI of the OSER structure to the MFI of the nuclear envelope, after 24 and 48 h (CytERM-mGFP): < 2.3
Molecule: CytERM-mGFP

B1: small Ultra-Red Fluorescent Protein (smURFP) (other)
chain: MKTSEQRVNIATLLTENKKKIVDKASQDLWRRHPDLIAPGGIAFSQRDRALCLRDYGWFLHLITFCLLAGDKGPIESIGLISIREMYNSLGVPVPAMMESIRCLKEASLSLLDEEDANETAPYFDYIIKAMS
modifications: biliverdin (BV) covalently attached to C52 in part of the protein (20% BV with high expression); the crystal holds apo-smURFP
OSER assay in HEK293A cells expressing CytERM-smURFP: ratio of the MFI of the OSER structure to the MFI of the nuclear envelope, after 24 h (4.8) and 48 h (3.7) [1]: 4.8
stoichiometry N [2]: 2
